Experimental data: patent publication US20220396632A1 (VERSEAU THERAPEUTICS, published 2022)

How the values were obtained:
[1] = target: T1, Biotin PSGL-1(42-62) L49A peptide (C-terminal Lys-biotin); test: ELISA, streptavidin-bound Ala peptide
T1 peptide: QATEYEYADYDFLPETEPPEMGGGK

[2] = target: T2, Biotin PSGL-1(42-62) Y51A peptide (C-terminal Lys-biotin); test: ELISA, streptavidin-bound Ala peptide
T2 peptide: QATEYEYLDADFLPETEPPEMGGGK

[3] = target: T3, Biotin PSGL-1(42-62) L54A peptide (C-terminal Lys-biotin); test: ELISA, streptavidin-bound Ala peptide
T3 peptide: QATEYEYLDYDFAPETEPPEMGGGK

[4] = target: T4, Biotin PSGL-1(42-62) F53A peptide (C-terminal Lys-biotin); test: ELISA, streptavidin-bound Ala peptide
T4 peptide: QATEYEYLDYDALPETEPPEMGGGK

[5] = target: T5, Recombinant human PSGL-1(ECD)-hFc1 (R&D Systems, Cat. 3345-PS) (human, UniProt Q14242 42-305); test: Octet tandem; competitor 15A7
T5 construct: Bought; Gln42-Val295 counted on AAC50061; also called PSGL-1-Fc; PSGL-1-hFc1 chimera; not shown: human IgG1 Fc, Pro100-Lys330
T5 sequence: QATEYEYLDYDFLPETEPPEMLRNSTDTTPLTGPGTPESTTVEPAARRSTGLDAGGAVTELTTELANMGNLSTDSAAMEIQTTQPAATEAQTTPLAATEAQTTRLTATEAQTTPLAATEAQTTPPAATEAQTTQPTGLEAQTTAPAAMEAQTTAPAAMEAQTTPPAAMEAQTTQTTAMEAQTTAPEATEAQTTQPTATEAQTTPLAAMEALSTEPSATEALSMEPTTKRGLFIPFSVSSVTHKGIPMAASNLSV
Experimental: (§1) Antibody binning was performed by ForteBio Octet® using a tandem assay format, with anti-human IgG biosensor-immobilized PSGL-1(ECD)-hFc1 protein, binding of competitor mAb followed by analyte antibody. As competition controls, the same antibody was competed against itself, and mAb competition was performed bidirectionally.
(§2) Antibody binning by tandem octet was performed by immobilizing 10 ug/mL PSGL-1(ECD)-hFc1 (R&D Systems, Cat. #3345-PS) in PBS, pH 7.4, onto anti-human IgG capture biosensors (ForteBio, Cat. #18-5060), binding of 100 nM competitor antibody for 300 sec., followed by binding of 100 nM of analyte mAb for 300 s in kinetic buffer (0.1% BSA in PBS containing 0.02% tween 20 and 0.05% sodium azide, pH 7.4). Synagis (Johnson et al. (1997) J. Infect. Dis. 176:1215-1224) served as a negative control mAb for competition. An Fc quench step (0.25 mg/mL human IgG Fcl; BioXcell, Cat. #BE0096, in kinetic buffer) was included when human mAbs were tested to prevent high background from the antibodies binding to the anti-human IgG biosensor. Biosensor regeneration buffer consisted of 10 mM glycine, pH 2.0.

[6] = target: T5, Recombinant human PSGL-1(ECD)-hFc1 (R&D …); test: Octet tandem; competitor 18F17
Experimental: as §1, §2

[7] = target: PSGL-1(ECD)-hFc1 S116A protein (Sino Biological) (human); test: ELISA, plate-bound peptide or protein
Experimental: (§3) A typical ELISA experiment involved binding of a single concentration or serially diluted mAb in assay buffer (3% BSA in PBS containing 0.05% Tween®20, pH 7.4) onto BSA blocked high binding microtiter plate half-wells (Corning Cat. #3690), which contained PSGL-1 protein or streptavidin-immobilized biotin peptide. After incubation for 45 min. at 37° C., the plate was washed 3 times with wash buffer (PBS containing 0.05% Tween®20, pH 7.4), and an appropriate HRP-conjugated secondary antibody added (25 ul/well) (HRP goat anti-mouse or anti-human IgG). After 45 min. incubation at 37° C., the plate was washed and antibody bound to plate-immobilized target was determined at A450 nm using HRP substrate (3,3′5,5′-tetramethylbenzidine (TMB)). For each antibody, duplicate values were averaged and assay background subtracted.

[8] = target: PSGL-1(ECD)-hFc1 M119A protein (Sino Biological) (human); test: ELISA, plate-bound peptide or protein
Experimental: as §3

[9] = target: PSGL-1(ECD)-hFc1 I121A protein (Sino Biological) (human); test: ELISA, plate-bound peptide or protein
Experimental: as §3

[10] = target: T6, Biotin PSGL-1(42-62) peptide, unmodified (human, C-terminal Lys-biotin); test: ELISA, plate-bound target
T6 construct: Residues 42-62 followed by GGGK-biotin; also called WT; wild-type
T6 peptide: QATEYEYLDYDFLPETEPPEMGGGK
Experimental: (§4) Two ELISA methods were performed. One procedure detected mAb binding to its plate-immobilized target and the other measured the immobilized antibody's ability to capture biotinylated PSGL-1₄₂₋₆₂. […] The plate was incubated for 45 min at 37° C. Plates were washed 3 times with wash buffer (PBS containing 0.05% tween 20, pH 7.4) and a single concentration (2 to 500 nM) or serially diluted (0.002-100 nM) anti-PSGL-1 mAb was added (25 ul/well) in assay buffer into appropriate wells. The plate was incubated for 45 min at 37° C., washed 3 times, and an appropriate HRP-conjugated secondary antibody added (25 ul/well) (HRP goat anti-mouse or anti-human IgG). After 45 min incubation at 37° C., the plate was washed, and antibody bound to plate-immobilized target was determined at A450 nm using HRP substrate (3,3′,5,5′-etramethylbenzidine (TMB)). For each antibody, duplicate values were averaged and assay background was subtracted. Except for the following, ELISAs involving plate-immobilized mAb capturing of biotinylated PSGL-1₄₂₋₆₂ peptides was performed in the same manner as described above: 3 ug/mL/25 ul per well of mAb was coated directly onto microtiter plate wells; biotinylated unmodified or sulfotyrosine PSGL-1₄₂₋₆₂ was serially diluted (3 nM-3 uM) into appropriate wells, and antibody-bound peptide was detected using HRP-streptavidin (Jackson Immunoresearch, Cat. #016-030-084).

[11] = target: T7, Biotin Y46,48,51(SO3) PSGL-1(42-62) peptide (human, sulfotyrosine at Y46, Y48 and Y51; C-terminal Lys-biotin); test: ELISA, plate-bound target
T7 construct: also called fully sulfated N-terminal PSGL-1 peptide
T7 peptide: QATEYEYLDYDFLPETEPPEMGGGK
Experimental: as §4

[12] = target: T6, Biotin PSGL-1(42-62) peptide, unmodified; test: ELISA, plate-bound mAb captures biotin peptide
Experimental: as §4

B1: 16L15 (antibody, V domains shown)
VH: DVKLVESGGGLVKLGGSLKLSCAASGFTFSSYYMSWVRQTPEKRLEWVATISNGGGSTYYPDSVKDRFTISRDNAKNTLYLQMSSLNSEDTAVYYCAKPLYYSNPWFAYWGQGTLVTVSA
VL: DVLLTQTPLSLPVSLGDQASISCRSSQSIVHSNGNTYLEWYLQKPGQSPKLLIYKVSNRFSGVPDRFSGSGSGTDFTLKISRVEAEDLGVYYCFQGSHVPRTFGGGTKLEIK
notes: From mouse immunisation; only variable domains given
B1 gave an EC50 [1] of 3.43 nM and an EC50 [2] of 8.83 nM.

B2: 9F9 (antibody, V domains shown)
VH: EVQLVETGGGLVQPKGSLKLSCAASGFTFNTNAMNWVRQAPGKGLEWVARIRSKSNNYATYYADSVKDRFTISRDDTQSMIYLQMNNLKTEDTGMYYCVRGGSYWYFDVWGAGTTVTVSS
VL: DVLMTQTPLSLPVSLGDQASISCRSSQSIVNSNGNTYLEWYLQKPGQSPKLLIYKVSNRFSGVPDRFSGSGSGTDFTLKISRVEAEDLGVYYCFQGSHVPWTFGGGTKLEIK
notes: Control anti-PSGL-1 mAb, recombinant; only variable domains given; also called 9F6
In the case of B2, the EC50 [2] is reported as 1.72 nM and the EC50 [3] is reported as 2.31 nM.

B3: 18F02 (antibody, V domains shown)
VH: QVQLQQPGAELVKPGASVKLSCKASGYTFTSYWMHWVKQRPGQGLEWIGMIHPNSGRTNYNEKFKSKATLTVDKSSSTAYMQLSSLTSEDSAVYYCARSDYWGQGTTLTVSS
VL: DIVMTQAAFSNPVTLGTSASISCRSSKSLLHSDGITYLYWFLQRPGQSPQLLIYRMSNLASGVPDRFSGSGSGTDFTLRISRVEAEDVGVYYCAQMLEFPRTFGGGTKLEIK
notes: as for B1
Work on B3 yielded an EC50 [4] of 7.1 nM.

B4: 18K07 (antibody, V domains shown)
VH: QIQLVQSGPELKKPGETVKISCEASGYTFTTYGMNWVKQAPGKGLKWMGWINTYSGVPTYADDFQGRFAFSVETSATTAYLQINNLKNEDAATYFCARSDDTYYGFAYWGQGTLVTVSA
VL: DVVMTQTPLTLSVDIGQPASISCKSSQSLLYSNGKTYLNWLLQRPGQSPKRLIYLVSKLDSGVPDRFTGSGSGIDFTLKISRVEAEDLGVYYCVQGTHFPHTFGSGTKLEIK
notes: as for B1
In the case of B4, the “% binding of analyte mAb” value [5] is reported as 23.9%, the “% binding of analyte mAb” value [6] is reported as 91.4% and the EC50 [7] is reported as 0.58 nM. For the same binder, the EC50 [8] was 0.46 nM and the EC50 [9] was 0.51 nM.

B5: 16E17 (antibody, V domains shown)
VH: QIQLVQSGPELKKPGETVKISCKASGYAFTTYGMSWVKQAPGKGLKWMGWINTYSGVPKYADDFKGRFAFSLETSASTAYLHINNLKNEDTATYFCGRHYYGSSYFDYWGQGTTLTVSS
VL: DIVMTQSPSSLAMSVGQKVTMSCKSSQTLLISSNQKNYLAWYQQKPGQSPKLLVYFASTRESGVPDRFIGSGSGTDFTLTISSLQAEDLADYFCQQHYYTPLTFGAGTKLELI
notes: as for B1
With B5 the “% binding of analyte mAb” value [5] was 21%, the “% binding of analyte mAb” value [6] was 93.8% and the EC50 [7] was 0.8 nM. The EC50 [8] was 0.87 nM and the EC50 [9] was 1.54 nM.

B6: 19L04 (antibody, IgG4, V domains shown)
VH: QIQLVQSGPELKKPGETVKISCKASGYTFTTYGMSWVKQAPGKGLKWMGWINTYSGVPTYADDFKGRFAFSLETSASTAYLQINNLKIEDTATYFCARHYYGSHYFDYWGQGTTLTVSS
VL: DIMMTQSPSSLAMSVGQKVTLRCKSSQSLLNSSNQKNYLAWYQQKPGQSPKLLVYFASTRESGVPVRFIGSGSGTDFTLTISSMQAEDLADYFCQQHYFSPLTFGAGTKLELK
notes: as for B1
B6 was tested, and the “% binding of analyte mAb” value [5] was 28.3%, the “% binding of analyte mAb” value [6] was 81.4% and the EC50 [7] was 0.98 nM. It also gave an EC50 [8] of 0.86 nM and an EC50 [9] of 0.97 nM.

B7: 19N05 (antibody, V domains shown)
VH: QIQLVQSGPELKKPGETVKISCKASGYTFTTYGMSWVKQAPGKGLKWMGWINTYSGVPTFADDFKGRFAFSLETSASTAYLQINNLKNEDTATFFCARNYYGNHYFDYWGQGTTLTVSS
VL: DVQITQSPSYLAASPGETISINCRASNNINKYLAWYQEKPGKTNKLLIYSGSTLQSGIPSRFSGSGSGTDFTLTISSLEPEDFAMYHCQQHNYYPLTFGAGTKLELK
notes: as for B1
In the case of B7, the “% binding of analyte mAb” value [5] is reported as 36%, the “% binding of analyte mAb” value [6] is reported as 65.3% and the EC50 [7] is reported as 0.55 nM. It also gave an EC50 [8] of 0.51 nM and an EC50 [9] of 0.53 nM.

B8: 10F01 (antibody, IgG4, V domains shown)
VH: EVQLVQSGGGLVQPGGSLRLSCAASGFTFSSYAMSWVRQAPGKGLEWVSALRGGDGGTYHADSVKGRFTISGDSSKNTLYLQMNSLRAEDTAVYYCARRMVGAAYAFDIWGQGTMVTVSS
VL: LPVLTQPHSVSESPGKTVTISCTRSSGSIADNFVQWYRQRPGSAPTTVIYEGDQRPSGVPGRFSGSIDSSSNSASLTISGLQTDDEADYYCQSFDSYNRRTHVVFGGGTKLTVL
For B8, the EC50 [10] was greater than 500 nM and the EC50 [11] was 0.13 nM.

B9: 43B6 (antibody, V domains shown)
VH: EVQLQQSGPDLVKPGALVKISCKASGYSFTAYYIHWVKQSHGKSLEWIGRVNPNTGGTSYNPKFKGKAILNVDKSSSTAYMELRSLTSEDSAVYYCARSGSPYYRYDDWGQGTTLTVSS
VL: ENVLTQSPAIMSASPGEKVTMTCRASSTVNSTYLHWFQQKSGASPKLWIYGSSNLASGVPARFSGSGSGTSYSLTISSVEAEDAATYYCQQYSGYPLTFGAGTTLELK
notes: Control anti-PSGL-1 mAb, recombinant; only variable domains given; also called 43B3
With B9 the EC50 [1] was 2.63 nM and the binding result [3] was “no binding”.

B10: 19I01 (antibody, V domains shown)
VH: EVQLVESGGGLVKPGGSRKLSCAASGFTFSDYGMHWVRQAPEKGLEWVAYISSGSSTIYYADTVKGRFTISRDNAKNTLFLQMTSLRSEDTAMYYCARGVDGYWGQGTTLTVSS
VL: DVVMTQTPLSLPVSLGDQASISCRSSQSLVHSNGNTYLHWYLQKPGQSPKFLIYKVSNRFSGVPDRFSGSGSGTDFTLKISRVEAEDLGVYFCSQTTHVPLTFGAGTKLELK
notes: From mouse immunisation; only variable domains given; also called 19101
Work on B10 yielded an EC50 [4] of 2.95 nM.

B11: 03D07 (antibody, IgG4, V domains shown)
VH: EVKLLESGGGLVQPGGSLRLSCAASGFTFSSYALSWVRQAPGKGLEWVSAISGSGGNTYYADSVKGRFTISRDNSKNTLYLQMNSLRAEDTAVYYCAKVVGATNYWGQGTLVTVSS
VL: DIVMTQTPLSLPVTLGQPASISCRSSQSLVYSDGHTYLSWFHQRPGQSPRRLIYKVSIRDSGVPDRFSGSGSGTDFTLKISRVEAEDVGVYYCMQRLQIPLTFGGGTKVEIK
B11 was tested, and the EC50 [10] was greater than 20 nM, the EC50 [11] was 0.13 nM and the EC50 [12] was greater than 3000 nM.
